The text below walks through data of patent US20240321457A1, “SYSTEMS FOR AND METHODS OF TREATMENT SELECTION” (THE REGENTS OF THE UNIVERSITY OF CALIFORNIA, priority 2020, published 2024).

This assay addresses UBE2N (human) (UniProt P61088). Briefly: AP-MS, PPI score from compPASS and SAINTexpress, MDA-MB-231 cells.

UBE2N (human), sequence (P61088 whole entry): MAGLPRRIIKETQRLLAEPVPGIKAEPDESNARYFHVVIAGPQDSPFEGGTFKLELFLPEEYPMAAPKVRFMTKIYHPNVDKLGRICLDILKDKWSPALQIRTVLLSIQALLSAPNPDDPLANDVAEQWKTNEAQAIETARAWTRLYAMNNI

The substance “BRCA1 isoform lacking exon 11 (from UniProt P38398 1-721) (enzyme)” displayed a PPI score below 0.6.
